Assay results: IntAct's records for PubMed 39938803

B1: Retinoblastoma-associated protein (Homo sapiens), P06400 (parent)
chain: MPPKTPRKTAATAAAAAAEPPAPPPPPPPEEDPEQDSGPEDLPLVRLEFEETEEPDFTALCQKLKIPDHVRERAWLTWEKVSSVDGVLGGYIQKKKELWGICIFIAAVDLDEMSFTFTELQKNIEISVHKFFNLLKEIDTSTKVDNAMSRLLKKYDVLFALFSKLERTCELIYLTQPSSSISTEINSALVLKVSWITFLLAKGEVLQMEDDLVISFQLMLCVLDYFIKLSPPMLLKEPYKTAVIPINGSPRTPRRGQNRSARIAKQLENDTRIIEVLCKEHECNIDEVKNVYFKNFIPFMNSLGLVTSNGLPEVENLSKRYEEIYLKNKDLDARLFLDHDKTLQTDSIDSFETQRTPRKSNLDEEVNVIPPHTPVRTVMNTIQQLMMILNSASDQPSENLISYFNNCTVNPKESILKRVKDIGYIFKEKFAKAVGQGCVEIGSQRYKLGVRLYYRVMESMLKSEEERLSIQNFSKLLNDNIFHMSLLACALEVVMATYSRSTSQNLDSGTDLSFPWILNVLNLKAFDFYKVIESFIKAEGNLTREMIKHLERCEHRIMESLAWLSDSPLFDLIKQSKDREGPTDHLESACPLNLPLQNNHTAADMYLSPVRSPKKKGSTTRVNSTANAETQATSAFQTQKPLKSTSLSLFYKKVYRLAYLRLNTLCERLLSEHPELEHIIWTLFQHTLQNEYELMRDRHLDQIMMCSMYGICKVKNIDLKFKIIVTAYKDLPHAVQETFKRVLIKEEEYDSIIVFYNSVFMQRLKTNILQYASTRPPTLSPIPHIPRSPYKFPSSPLRIPGGNIYISPLKSPYKISEGLPTPTKMTPRSRILVSIGESFGTSEKFQKINQMVCNSDRVLKRSAEGSNPPKPLKKLRFDIEGSDEADGSKHLPGESKFQQKLAEMTSTRTRMQKQKMNDSMDTSNKEEK

Experiments:
e2f1_human E2F1, Q01094 [1] = variants of: B1; conditions: with e2f1_human E2F1, Q01094
e2f1_human E2F1, Q01094 [2] = variants of: B1; conditions: with e2f1_human E2F1, Q01094; remark: listed apart in the source
ve7_hpv16 E7, P03129 [3] = variants of: B1; conditions: with ve7_hpv16 E7, P03129
ve7_hpv16 E7, P03129 [4] = variants of: B1; conditions: with ve7_hpv16 E7, P03129; remark: listed apart in the source

Chain of ve7_hpv16 E7, P03129 (P03129 whole entry): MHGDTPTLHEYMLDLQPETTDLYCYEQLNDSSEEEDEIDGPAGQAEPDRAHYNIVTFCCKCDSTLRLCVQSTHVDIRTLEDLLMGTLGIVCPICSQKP
Chain of e2f1_human E2F1, Q01094 (Q01094 whole entry): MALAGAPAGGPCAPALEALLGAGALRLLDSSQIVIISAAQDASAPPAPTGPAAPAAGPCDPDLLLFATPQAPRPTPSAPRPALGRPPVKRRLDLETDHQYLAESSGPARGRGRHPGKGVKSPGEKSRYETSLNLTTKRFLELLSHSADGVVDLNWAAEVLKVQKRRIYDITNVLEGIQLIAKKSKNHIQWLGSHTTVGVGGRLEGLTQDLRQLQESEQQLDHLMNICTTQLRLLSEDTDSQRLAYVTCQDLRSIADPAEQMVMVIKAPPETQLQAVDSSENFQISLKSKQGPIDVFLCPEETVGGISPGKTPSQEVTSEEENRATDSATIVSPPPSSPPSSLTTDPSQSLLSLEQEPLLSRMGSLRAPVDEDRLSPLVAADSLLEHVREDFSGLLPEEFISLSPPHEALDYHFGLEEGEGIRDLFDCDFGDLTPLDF

Variant | effect of a mutation on the interaction (e2f1_human E2F1, Q01094 [1]) | effect of a mutation on the interaction (e2f1_human E2F1, Q01094 [2]) | effect of a mutation on the interaction (ve7_hpv16 E7, P03129 [3]) | effect of a mutation on the interaction (ve7_hpv16 E7, P03129 [4])
I703F | decreasing interaction strength | disrupting interaction strength | decreasing interaction strength | disrupting interaction strength
I703V | decreasing interaction strength | disrupting interaction strength | decreasing interaction strength | 
M704V | decreasing interaction strength | disrupting interaction strength | decreasing interaction strength | 
T738I | decreasing interaction strength | disrupting interaction strength | decreasing interaction strength | disrupting interaction strength
R741C | decreasing interaction strength |  | decreasing interaction strength | 
R741H | decreasing interaction strength |  | decreasing interaction strength | 
R741S | decreasing interaction strength |  | decreasing interaction strength | 
S751C | decreasing interaction strength | disrupting interaction strength | decreasing interaction strength | 
S751Y | decreasing interaction strength | disrupting interaction strength | disrupting interaction strength | 
V754G | decreasing interaction strength |  | decreasing interaction strength | 
M761L | decreasing interaction strength |  | increasing interaction strength | 
R763T | decreasing interaction strength |  | decreasing interaction strength | 
R621C |  | decreasing interaction strength | decreasing interaction strength | 
